Source: paper PMC13544220, “Glycemic and bodyweight effects of GIPR coding variation reflect differences in surface expression and intrinsic functional impairment” (Science Advances, 2026)
Peptide text beside a SMILES is read from it. * marks the point of attachment. Cbz = O=C(OCc1ccccc1)*; OtBu = CC(C)(C)O*

Legend:
Assay type in all cases: cell-based, human
[1] = tested on: wild-type and variant SNAP-GIPR in INS-1 cells; experiment: Proteasomal inhibition, total SNAP-GIPR in INS-1 cells; conditions: for total SNAP-GIPR level with PSI: 100 μM, 4 h, INS-1, scaled to experimental average without PSI; for total SNAP-GIPR level after proteasomal inhibition: INS-1, 100 μM, 4 hours
Procedure: INS-1 cells were reverse transfected with the GIPR variant or wild-type plasmids in 96-well, clear-bottom, black microplates precoated with poly-D-lysine. All variants were tested in parallel on each occasion to control for transfection efficiency differences between experiments. Twelve hours posttransfection, the cells were treated with either vehicle or Proteasome Inhibitor I (Merck) for 4 hours. Following this, the cells were labeled with the cell-permeable SNAP-tag probe BG-OG ([29]) for 10 min at 37°C to label total SNAP. Cells were then imaged as in the “Assessment of surface GIPR expression by SNAP-tag labeling in cell lines” section to establish total GIPR labeling (surface and intracellular). Images were analyzed as in the “Assessment of surface GIPR expression by SNAP-tag labeling in cell lines” section.

[2] = tested on: wild-type and variant SNAP-GIPR in INS-1 cells; experiment: Bafilomycin A1 effect on surface SNAP-GIPR in INS-1 cells; conditions: inhibition of constitutive GIPR down-regulation; fig. S2A
Procedure: Twenty-four hours before the experiment, AD293 or INS-1 cells were reverse transfected with GIPR variant or wild-type plasmids using Lipofectamine 2000 in 96-well, clear-bottom, black microplates precoated with poly-D-lysine. All variants were tested in parallel on each occasion to control for transfection efficiency differences between experiments.

[3] = tested on: wild-type and variant SNAP-GIPR; experiment: cADDis cAMP imaging in AD293 cells, ensemble, expression-matched and per decile; conditions: Fig S3F, cADDis, mean
How it was run: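 Per-cell cAMP from cADDis intensity over time, with cells excluded by IBMX/FSK response criteria. Expression matching used wild-type surface-SNAP deciles, top and bottom trimmed, mean of decile means. Ensemble values ignore deciles. Wide-field imaging at 37 °C in KRBH with 6 mM glucose, 0.1% BSA, 24 h post-transfection in AD293.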

[4] = tested on: wild-type and variant SNAP-GIPR; experiment: Constitutive and agonist-mediated internalization, reversible SNAP-tag labelling, INS-1 cells; parameters: key to Internalisation, GIP-only / Internalisation, Vehicle / Internalisation, +GIP: % internalization: residual fluorescence after Mesna vs pre-Mesna; conditions: Mean
How it was run: (§1)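 Surface SNAP-GIPR signal removable by Mesna was tracked by imaging before and 10 min after treatment in pH 8.6 TNE buffer. Internalization is the Mesna-resistant share of specific fluorescence.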

[5] = tested on: wild-type and variant SNAP-GIPR; experiment: Surface SNAP-GIPR expression (SNAP-tag labelling) in INS-1 cells; conditions: Fig 4G; Mean
How it was run: (§2)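 Surface GIPR is quantified from wide-field images after labelling intact transfected cells with a membrane-impermeant SNAP probe at 500 nM for 10 min at room temperature. Specific signal, corrected for nontransfected cells, is normalized to the experiment-wide average or to wild-type.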

[6] = tested on: wild-type and variant SNAP-GIPR; experiment: Constitutive and agonist-mediated internalization, reversible SNAP-tag labelling, AD293 cells; parameters: key to Internalisation, Vehicle / Internalisation, +GIP / Internalisation, GIP-only: % internalization: residual fluorescence after Mesna vs pre-Mesna; Surface expression: unit not given here; conditions: Mean
How it was run: as §1

[7] = tested on: wild-type and variant SNAP-GIPR; experiment: Single-concentration GIP cAMP response by HTRF in AD293 cells; conditions: Fig S3F, HTRF, mean;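 note: ratio to experiment-wide average response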
Procedure: (§3) All variants were tested in parallel on each occasion to control for transfection efficiency differences between experiments.

[8] = tested on: wild-type and variant SNAP-GIPR; experiment: Surface SNAP-GIPR expression (SNAP-tag labelling) in AD293 cells; conditions: for AD293 Surface: Fig S3E, mean; for Surface SNAP-GIPR expression: sheet Fig 1C
How it was run: as §2

[9] = tested on: wild-type and variant SNAP-GIPR; experiment: Single-concentration GIP cAMP response by HTRF in INS-1 cells; conditions: Fig S3E, mean
Procedure: as §3

CC[C@H](C)[C@H](NC(=O)OCc1ccccc1)C(=O)N[C@@H](CCC(=O)OC(C)(C)C)C(=O)N[C@@H](C)C(=O)N[C@H](C=O)CC(C)C [PSI] (Cbz-IE(OtBu)AL-aldehyde)
total SNAP-GIPR level with PSI ([1]; E288G, replicate 1): 0.3892 | total SNAP-GIPR level with PSI ([1]; E288G, replicate 2): 3.417 | total SNAP-GIPR level with PSI ([1]; E288G, replicate 3): 2.001 | total SNAP-GIPR level with PSI ([1]; E288G, replicate 4): 0.9026 | total SNAP-GIPR level with PSI ([1]; E288G, replicate 5): 1.217 | total SNAP-GIPR level with PSI ([1]; E354Q, replicate 1): 0.9055 | total SNAP-GIPR level with PSI ([1]; E354Q, replicate 2): 0.737 | total SNAP-GIPR level with PSI ([1]; E354Q, replicate 3): 1.364 | total SNAP-GIPR level with PSI ([1]; E354Q, replicate 4): 0.8268 | total SNAP-GIPR level with PSI ([1]; E354Q, replicate 5): 0.8316 | total SNAP-GIPR level after proteasomal inhibition ([1]; E288G): significant increase in E288G levels | total SNAP-GIPR level after proteasomal inhibition ([1]; R190Q and R101H): numerically similar trends | total SNAP-GIPR level after proteasomal inhibition ([1]; wild-type and E354Q): unaffected by proteasomal inhibition | total SNAP-GIPR level with PSI ([1]; R101H, replicate 1): 0.131 | total SNAP-GIPR level with PSI ([1]; R101H, replicate 2): 0.3704 | total SNAP-GIPR level with PSI ([1]; R101H, replicate 3): 0.7801 | total SNAP-GIPR level with PSI ([1]; R101H, replicate 4): 0.651 | total SNAP-GIPR level with PSI ([1]; R101H, replicate 5): 0.8591 | total SNAP-GIPR level with PSI ([1]; R190Q, replicate 1): 0.3291 | total SNAP-GIPR level with PSI ([1]; R190Q, replicate 2): 0.5524 | total SNAP-GIPR level with PSI ([1]; R190Q, replicate 3): 1.18 | total SNAP-GIPR level with PSI ([1]; R190Q, replicate 4): 0.5932 | total SNAP-GIPR level with PSI ([1]; R190Q, replicate 5): 0.77 | total SNAP-GIPR level with PSI ([1]; WT, replicate 1): 4.2848 | total SNAP-GIPR level with PSI ([1]; WT, replicate 2): 3.795 | total SNAP-GIPR level with PSI ([1]; WT, replicate 3): 3.454 | total SNAP-GIPR level with PSI ([1]; WT, replicate 4): 1.746 | total SNAP-GIPR level with PSI ([1]; WT, replicate 5): 2.287

CO/C1=C\C(C)=C\[C@@H](C)[C@@H](O)[C@@H](C)C/C(C)=C/C=C/[C@H](OC)[C@@H]([C@@H](C)[C@@H](O)[C@H](C)[C@@]2(O)C[C@@H](O)[C@H](C)[C@@H](C(C)C)O2)OC1=O [bafilomycin A1]
rescue of surface expression of GIPR variants [2]: did not lead to disproportionate “rescue”

B1: E252D (protein)
chain: RAETGSKGQTAGELYQRWERYRRECQETLAAAEPPSGLACNGSFDMYVCWDYAAPNATARASCPWYLPWHHHVAAGFVLRQCGSDGQWGLWRDHTQCENPEKNEAFLDQRLILERLQVMYTVGYSLSLATLLLALLILSLFRRLHCTRNYIHINLFTSFMLRAAAILSRDRLLPRPGPYLGDQALALWNQALAACRTAQIVTQYCVGANYTWLLVEGVYLHSLLVLVGGSDEGHFRYYLLLGWGAPALFVIPWVIVRYLYENTQCWERNEVKAIWWIIRTPILMTILINFLIFIRILGILLSKLRTRQMRCRDYRLRLARSTLTLVPLLGVHEVVFAPVTEEQARGALRFAKLGFEIFLSSFQGFLVSVLYCFINKEVQSEIRRGWHHCRLRRSLGEEQRQLPERAFRALPSGSGPGEVPTSRGLSSGTLPGPGNEASRELESYC
AD293 100 pM cADDis ([3]; AD293, 100 pM): 35.9603 | AD293 100 nM cADDis ([3]; AD293, 100 nM): 38.59 | +GIP internalisation (100 nM) ([4]; Fig 4G, GIP 100 nM): 0.6632 | GIP-specific internalisation (100 nM) ([4]; Fig 4G, GIP 100 nM): 0.1797 | Constitutive internalisation (100 nM) ([4]; Fig 4G): 0.4835 | Internalisation, +GIP ([4]; Fig S4C, INS-1): 49.4067 | Internalisation, GIP-only ([4]; Fig S4C, INS-1): 13.4967 | Internalisation, Vehicle ([4]; Fig S4C, INS-1): 35.91 | Surface expression [5]: 1.379 | +GIP internalisation (100 nM) ([6]; Fig 4E, GIP 100 nM): 0.7833 | GIP-specific internalisation (100 nM) ([6]; Fig 4E, GIP 100 nM): 0.2173 | Constitutive internalisation (100 nM) ([6]; Fig 4E): 0.566 | Surface expression ([6]; Fig 4E): 1.422 | Internalisation, +GIP ([6]; Fig S4C, AD293): 55.2271 | Internalisation, GIP-only ([6]; Fig S4C, AD293): 15.2317 | Internalisation, Vehicle ([6]; Fig S4C, AD293): 39.9954 | AD293 100 pM HTRF ([7]; AD293, 100 pM): 2.258 | AD293 100 nM HTRF ([7]; AD293, 100 nM): 1.787 | AD293 Surface ([8]; column repeated, paired with cAMP 100 nM): 1.407 | AD293 Surface ([8]; paired with cAMP 100 pM): 1.407 | Surface SNAP-GIPR expression ([8]; replicate 1): 1.329 | Surface SNAP-GIPR expression ([8]; replicate 2): 1.136 | Surface SNAP-GIPR expression ([8]; replicate 3): 2.323 | Surface SNAP-GIPR expression ([8]; replicate 4): 1.309 | Surface SNAP-GIPR expression ([8]; replicate 5): 1.389 | Surface SNAP-GIPR expression ([8]; replicate 6): 1.509 | Surface SNAP-GIPR expression ([8]; replicate 7): 1.009 | Surface SNAP-GIPR expression ([8]; replicate 8): 1.58 | Surface SNAP-GIPR expression ([8]; replicate 9): 1.305 | Surface SNAP-GIPR expression ([8]; replicate 10): 1.452 | Surface SNAP-GIPR expression ([8]; replicate 11): 1.297 | Surface SNAP-GIPR expression ([8]; replicate 12): 1.294 | Surface SNAP-GIPR expression ([8]; replicate 13): 1.499 | Surface SNAP-GIPR expression ([8]; replicate 14): 1.714 | Surface SNAP-GIPR expression ([8]; replicate 15): 1.276 | Surface SNAP-GIPR expression ([8]; replicate 16): 1.31 | Surface SNAP-GIPR expression ([8]; replicate 17): 1.201 | Surface SNAP-GIPR expression ([8]; replicate 18): 1.327 | Surface SNAP-GIPR expression ([8]; replicate 19): 1.07 | Surface SNAP-GIPR expression ([8]; replicate 20): 1.361 | Surface SNAP-GIPR expression ([8]; replicate 21): 1.327 | Surface SNAP-GIPR expression ([8]; replicate 22): 1.295 | Surface SNAP-GIPR expression ([8]; replicate 23): 1.346 | Surface SNAP-GIPR expression ([8]; replicate 24): 1.279 | Surface SNAP-GIPR expression ([8]; replicate 25): 1.414 | Surface SNAP-GIPR expression ([8]; replicate 26): 1.49 | Surface SNAP-GIPR expression ([8]; replicate 27): 1.461 | Surface SNAP-GIPR expression ([8]; replicate 28): 1.564 | Surface SNAP-GIPR expression ([8]; replicate 29): 1.396 | Surface SNAP-GIPR expression ([8]; replicate 30): 1.388 | Surface SNAP-GIPR expression ([8]; replicate 31): 2.074 | Surface SNAP-GIPR expression ([8]; replicate 32): 1.301 | Surface SNAP-GIPR expression ([8]; replicate 33): 1.332 | Surface SNAP-GIPR expression ([8]; replicate 34): 1.623 | Surface SNAP-GIPR expression ([8]; replicate 35): 1.576 | Surface SNAP-GIPR expression ([8]; replicate 36): 1.688 | Surface SNAP-GIPR expression ([8]; replicate 37): 1.181 | Surface SNAP-GIPR expression ([8]; replicate 38): 1.286 | Surface SNAP-GIPR expression ([8]; replicate 39): 1.291 | Surface SNAP-GIPR expression ([8]; replicate 40): 1.349 | Surface SNAP-GIPR expression ([8]; replicate 41): 1.333 | INS-1 cAMP (100 nM) [9]: 1.435
